Data reported in paper PMC11066147 (Heliyon, 2024).
“And” between values parts separate entries of the source, which are not always exact repeats. Equal values may be shown once. Read-outs that look alike come from different tables or passages of the source.

B1: Plasmodium falciparum Hsp110 (PfHsp70-z, PF3D7_0708800) (natural protein)
chain: MSVLGIDIGNDNSVVATINKGAINVVRNDISERLTPTLVGFTEKERLIGDSALSKLKSNYKNTCRNIKNLIGKIGTDVKDDIEIHEAYGDLIPCEYNYLGYEVEYKNEKVVFSAVRVLSALLSHLIKMAEKYIGKECKEIVLSYPPTFTNCQKECLLAATKIINANVLRIISDNTAVALDYGMYRMKEFKEDNGSLLVFVNIGYANTCVCVARFFSNKCEILCDIADSNLGGRNLDNELIKYITNIFVNNYKMNPLYKNNTPELCPMGTGRLNKFLVTSTASDQQNGINNKVRIKLQEVAIKTKKVLSANNEASIHVECLYEDLDCQGSINRETFEELCSNFFLTKLKHLLDTALCISKVNIQDIHSIEVLGGSTRVPFIQNFLQQYFQKPLSKTLIADESIARGCVLSAAMVSKHYKVKEYECVEKVTHPINVEWHNINDASKSNVEKLYTRDSLKKKVKKIVIPEKGHIKLTAYYENTPDLPSNCIKELGSCIVKINEKNDKIVESHVMTTFSNYDTFTFLGAQTVTKSVIKSKDEKKKADDKTEDKGEKKDAKDQEQNDDKDQTNDNNMNEKDTNDKKEKNNETNSPNKTELKKGEEGKVQTCYTTIPIETLLAQGSYSSKDIFNFSEQEINMQHSDILEGERLKHLNELETIIYESRSRLNGIYKNFVMDDERDRILLSLDDYENWLYDNIEENKNMFIKKKEEIRDLIKNIVQKFDVYNSKQQNLGNIINHLNNIITQCSNKPSDESQNIINRTTKFLNNINSLQEQEKNKPLYEPPVYTLNDIEAEFNEVTQLAQKFFSKLEVEELAKQKAKQEKEKEKEKEKEKEKEKEKNEETNLDANEEQNNEAKNNEEKENSTKNENSANPEE
B2: Plasmodium falciparum heat shock protein 70-1 (PfHsp70-1) (natural protein)
chain: not shown

Assays:
Assay in all cases: SPR
[1] = molecular target: the molecule itself
[2] = molecular target: B1
[3] = molecular target: T1, E. coli Hsp70 (DnaK) (E. coli, UniProt P0A6Y8 1-638)
[4] = molecular target: B1; remark: listed apart in the source
[5] = molecular target: B2
[6] = molecular target: T1, E. coli Hsp70 (DnaK); remark: listed apart in the source
[7] = molecular target: B1; remark: listed apart in the source
[8] = molecular target: B2; remark: listed apart in the source

| Binder | koff [1] | binding result [2] | Kd [3] [nM] | Kd [4] [nM] | Kd [5] [nM] | Kd [6] [µM] | Kd [7] [nM] | Kd [8] [nM] |
| --- | --- | --- | --- | --- | --- | --- | --- | --- |
| B1 | 5.27e-05 s⁻¹ and 7.73e-05 s⁻¹ and 3.37e-05 s⁻¹ | – | – | – | – | – | – | – |
| B2 | – | binds | – | – | – | – | – | – |
| NRNNTG | – | – | 24.9 ± 0.09 | 24.1 ± 0.01 | 10.2 ± 0.02 | 7.31 ± 0.01 | 52.5 ± 0.05 | 296 ± 0.07 |
| ALLLMYRR | – | – | 82 ± 0.02 | 43.1 ± 0.01 | 61.8 ± 0.08 | 4.45 ± 0.05 | 97.1 ± 0.09 | 140 ± 0.4 |
| NRLLTG | – | – | 12.3 ± 0.03 | 145 ± 0.03 | 97.4 ± 0.04 | 2.53 ± 0.03 | 128 ± 0.08 | 181 ± 0.01 |
| ANNNMYRR | – | – | 440 ± 4 | 9.37 ± 0.07 | 4.02 ± 0.02 | 8.96 ± 0.06 | 8.31 ± 0.01 | 45.4 ± 0.07 |
